The experiment addresses human RXFP2 (human), Q8WXD0. Briefly: cell-based or functional assay.

Here are results for two molecules from US20190248863A1.

Positions of bridges follow the written chain, without caps; N, C: chain ends. Chains are numbered I, II in the order given. No end group written: not given here.

human RXFP2 (human), Q8WXD0, sequence (Q8WXD0 whole entry): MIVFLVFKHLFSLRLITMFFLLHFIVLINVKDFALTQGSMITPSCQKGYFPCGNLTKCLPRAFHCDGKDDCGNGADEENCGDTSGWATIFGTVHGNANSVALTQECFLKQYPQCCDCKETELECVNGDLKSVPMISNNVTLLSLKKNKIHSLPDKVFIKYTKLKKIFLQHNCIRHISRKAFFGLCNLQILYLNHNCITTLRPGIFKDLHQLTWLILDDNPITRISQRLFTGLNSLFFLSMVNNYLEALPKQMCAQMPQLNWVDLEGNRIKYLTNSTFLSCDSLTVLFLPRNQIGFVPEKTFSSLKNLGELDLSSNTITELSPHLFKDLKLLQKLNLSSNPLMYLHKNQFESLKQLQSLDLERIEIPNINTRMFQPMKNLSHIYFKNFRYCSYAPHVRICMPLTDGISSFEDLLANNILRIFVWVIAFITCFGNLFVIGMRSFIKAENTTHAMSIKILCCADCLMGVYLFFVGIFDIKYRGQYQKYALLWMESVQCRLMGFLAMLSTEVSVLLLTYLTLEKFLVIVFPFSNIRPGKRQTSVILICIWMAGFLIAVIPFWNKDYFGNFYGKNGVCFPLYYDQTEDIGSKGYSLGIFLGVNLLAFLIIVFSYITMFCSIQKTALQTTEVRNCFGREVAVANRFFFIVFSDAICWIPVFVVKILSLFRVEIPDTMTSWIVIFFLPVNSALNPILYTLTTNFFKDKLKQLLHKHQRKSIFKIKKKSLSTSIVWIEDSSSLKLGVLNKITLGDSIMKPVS

B1: wild-type human relaxin 2 (WT-RLX) (ligand)
chain 1: QLYSALANKCCHVGCTKRSLARFC
chain 2: DSWMEEVIKLCGRELVRAQIAICGMSTWS
modifications: disulfide I:10-I:15, I:11-II:11, I:24-II:23
B1: the cAMP Assay EC50 (nM), human RXFP2/CHO-K1 cells came to 5.5 nM and the fold less potent than INSL3 (cAMP assay EC50, human RXFP2/CHO-K1 cells) stood at 10 fold.

B2: RLX-A-AQ1-20KPEG (ligand)
chain 1: XLYSALANKCCHVGCTKRSLARFC
chain 2: ASWMEEVIKLCGRELVRAQIAICGMSTWS
modifications: here or on the partner: para-acetylphenylalanine (pAcF, X) at position 1 of the A chain, linked to a 20 kDa PEG via an oxime linkage
Consider B2, for which the Maximal cAMP stimulation by RLX-A-AQ1-20KPEG compared to WT-RLX (percent), AVG, hRXFP2 turned out to be 99%; the Potency Ratio (RLX-A-AQ1-20KPEG/WT-RLX), cAMP assay is 32 fold; the RLX-A-AQ1-20KPEG Potency Ratio (hRXFP1-1.0), cAMP assay was determined as 54 fold; the cAMP Assay EC50 (nM), human RXFP2/CHO-K1 cells worked out at 174 nM.
